Experimental findings from publication PMC3060684 are described below.

Changes are numbered by the printed parent chain. Read-outs that look alike come from different tables or passages of the source.

Data set [1] has as its target T1, GST-CCA1 (Arabidopsis thaliana, UniProt P92973 1-608). The data set can be described thus: EMSA.
For data set [2], the target named is T1, GST-CCA1. As to the kind of experiment: EMSA. The source holds these as a separate data set. (In general: Mobility shift assays separate free from complexed probe on a gel.)

T1 sequence (P92973 whole entry): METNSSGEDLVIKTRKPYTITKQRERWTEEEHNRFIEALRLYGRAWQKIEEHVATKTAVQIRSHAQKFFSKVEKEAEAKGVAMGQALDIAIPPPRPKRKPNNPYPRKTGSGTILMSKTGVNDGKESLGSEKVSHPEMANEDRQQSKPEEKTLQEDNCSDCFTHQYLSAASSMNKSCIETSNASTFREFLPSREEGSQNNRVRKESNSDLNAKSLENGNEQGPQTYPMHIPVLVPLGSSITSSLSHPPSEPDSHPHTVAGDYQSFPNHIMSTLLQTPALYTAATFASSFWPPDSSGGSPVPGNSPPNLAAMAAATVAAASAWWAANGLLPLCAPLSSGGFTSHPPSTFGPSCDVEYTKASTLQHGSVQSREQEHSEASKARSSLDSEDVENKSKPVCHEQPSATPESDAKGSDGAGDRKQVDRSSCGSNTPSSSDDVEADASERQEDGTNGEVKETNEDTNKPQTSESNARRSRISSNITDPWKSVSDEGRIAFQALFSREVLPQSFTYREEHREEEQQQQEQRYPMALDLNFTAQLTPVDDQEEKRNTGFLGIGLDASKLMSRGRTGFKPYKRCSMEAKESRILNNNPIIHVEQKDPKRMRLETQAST

B1: LumF (LumFs/LumFa) (dsDNA)
DNA 1: AAGTGAAAAAAAAAAGAGATATTCGAAGGG
DNA 2: GATTCCCTTCGAATATCTCTTTTTTTTTTC
As for B1, the binding result with GST-CCA1 [1] is listed as “binds”.

B2: LumM (LumMs/LumMa) (dsDNA)
DNA 1: TAAGTAGATATTGAAAGCAAGATTGAAAAAAATGTTG
DNA 2: AATCAAACATTTTTTTCAATCTTGCTTTCAATATCT
Regarding B2, in the data set with GST-CCA1 [1], the binding result is listed as “binds”.

B3: LumMD (LumMDs/LumMDa) (dsDNA)
DNA 1: B2 DNA 1 with A8C
DNA 2: B2 DNA 2 with T34G
B3: the binding result with GST-CCA1 [2] was “no binding”.

B4: LumFD (LumFDs/LumFDa) (dsDNA)
DNA 1: B1 DNA 1 with A19C
DNA 2: B1 DNA 2 with T16G
As for B4, the binding result in the data set with GST-CCA1 [2] is reported as “no binding”.
